US8753698B2, “Anti-hypertensive functional food products” (Globus Egg Sciences B.V., priority 2004, dated 2014)

Assays:
[1] = system: SHR rats; assay: Acute oral treatment of anaesthetized SHR, blood pressure; format: in vivo, rat; details: single oral dose 1000 mg/kg, percentage change from baseline
Method: (§1) This study was performed to establish the effects of acute oral treatment of anaesthetized SHR with lysozym/alcalase on blood pressure and plasma ACE activity.
Rats: SHR rats (382-440 g) were purchased via Harlan, Horst, The Netherlands from Harlan, Oxon, United Kingdom.
(§2) Surgery: At the day of the experiment, rats were anaesthetized and the carotid artery was cannulated for measurement of blood pressure. In addition to that, the jugular vein was cannulated to allow blood sampling for measurement of plasma ACE activity.
(§3) Protocol: At timepoint t=0, rats were administered the study drugs by means of oral gavage using a gastric tube. Blood samples were drawn immediately prior to gavage at t=0, as well as at t=0.5, t=1, t=2, t=3, t=4, t=5 and t=6 hr thereafter. Blood pressure was recorded (mean value every 10 min) throughout the 6 hr study period;
(§4) Study drugs: Rats were randomly administered either lysozym/alcalase or lysozym (both 1000 mg/kg; dissolved in 1 ml drinking water), or water only.

[2] = target: Angiotensin-I Converting Enzyme (ACE) (Homo sapiens, UniProt P12821); assay: Determination of ACE inhibitory activity of hydrolysates in a microtiter plate (Hip-His-Leu substrate); format: biochemical; details: no digestion simulation, in %
Angiotensin-I Converting Enzyme (ACE), sequence (P12821 30-1306, species assumed): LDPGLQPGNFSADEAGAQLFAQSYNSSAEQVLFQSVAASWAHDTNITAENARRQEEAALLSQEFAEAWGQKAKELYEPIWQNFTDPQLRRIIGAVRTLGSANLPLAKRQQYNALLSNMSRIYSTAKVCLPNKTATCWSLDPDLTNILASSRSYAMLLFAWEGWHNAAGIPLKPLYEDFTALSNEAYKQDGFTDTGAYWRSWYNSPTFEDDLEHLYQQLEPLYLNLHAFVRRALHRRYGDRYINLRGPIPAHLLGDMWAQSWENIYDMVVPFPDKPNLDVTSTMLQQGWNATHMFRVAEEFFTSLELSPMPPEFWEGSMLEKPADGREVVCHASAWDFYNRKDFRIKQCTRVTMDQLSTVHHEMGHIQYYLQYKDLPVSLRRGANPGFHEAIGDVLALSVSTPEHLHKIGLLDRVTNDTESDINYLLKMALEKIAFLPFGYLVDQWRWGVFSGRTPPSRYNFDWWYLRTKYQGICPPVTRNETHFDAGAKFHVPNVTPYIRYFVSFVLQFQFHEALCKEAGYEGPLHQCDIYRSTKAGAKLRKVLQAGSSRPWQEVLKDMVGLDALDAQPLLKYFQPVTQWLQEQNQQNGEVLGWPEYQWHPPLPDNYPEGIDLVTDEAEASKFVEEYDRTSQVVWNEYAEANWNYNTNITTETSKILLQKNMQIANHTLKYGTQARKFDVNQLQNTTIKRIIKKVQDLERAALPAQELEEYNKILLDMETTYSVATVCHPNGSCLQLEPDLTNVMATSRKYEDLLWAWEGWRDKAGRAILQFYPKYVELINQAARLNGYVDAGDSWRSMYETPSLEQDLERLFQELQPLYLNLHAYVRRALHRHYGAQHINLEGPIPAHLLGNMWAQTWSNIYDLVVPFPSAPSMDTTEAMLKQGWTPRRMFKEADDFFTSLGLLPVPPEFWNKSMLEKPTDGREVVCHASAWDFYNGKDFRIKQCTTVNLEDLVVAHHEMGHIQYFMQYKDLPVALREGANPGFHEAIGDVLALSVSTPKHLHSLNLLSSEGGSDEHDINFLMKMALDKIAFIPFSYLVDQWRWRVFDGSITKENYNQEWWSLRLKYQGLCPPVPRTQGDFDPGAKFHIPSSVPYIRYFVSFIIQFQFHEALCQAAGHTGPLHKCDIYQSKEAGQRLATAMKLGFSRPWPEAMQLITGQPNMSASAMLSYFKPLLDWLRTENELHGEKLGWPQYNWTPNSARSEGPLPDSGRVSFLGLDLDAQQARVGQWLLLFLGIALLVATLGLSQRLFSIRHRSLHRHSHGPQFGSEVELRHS
Method: ACE inhibitory activity can be measured in vitro using a spectrophotometry based assay. The assay is based on the liberation of hippuric acid from Hip-His-Leu substrate catalyzed by ACE.
Calculation of Ace Inhibition:
[formula] 2.4 Further (Optimized) Hydrolysis of Ovomucin with Alcalase Protocol for the DH Determination by TNBS Method Solutions: • 0.21 M Sodium phosphate buffer pH8.2 • 0.21 M NaH2PO4.H2O (25 ml solution) • 0.21 M Na2HPO4.2H2O (500 ml solution) • mix solutions to pH 8.2 • 0.05% TNBS • Dilute TNBS stock (5% solution) to 0.05% in MQ cover reagent tube with aluminium foil and store in dark place • 1% SDS solution • Leucine standard (stock 3 mM Leucine) • Dissolve Leucine in 1% SDS solution. Dilute the stock solution 20×, 10×, 4× en 2× with 1% SDS for analysis • Blank • Dilute non-hydrolysed sample in 1% SDS to a protein concentration of 0.5 mg/ml • Samples • Dilute hydrolysed protein in 1% SDS to a concentration of 0.5 mg/ml in duplo Analysis: • Pipet 15 μl sample (Leucine standard or sample) in microwell. Measure each dilution in twofold in plate (Costar, non-binding plate) • Add 45 μl 0.21 M sodium phosphate buffer pH 8.2 • Add 45 μl 0.05% TNBS. Cover plate with aluminium foil. Incubate plate for 60 minutes in a 50° C. stove. • After incubation add 90 μl 0.1 N HCl • Measure absorption at 340 nm (microplate reader) Calculation of degree of hydrolysis (DH): • Make calibration line of Leucine standard. This calibration line is used to convert absorption values of samples to NH2-equivalents.

[3] = target: T1, plasma ACE activity (Rattus norvegicus, UniProt P47820); assay: Acute oral treatment of anaesthetized SHR, plasma ACE activity; format: in vivo; details: single oral dose 1000 mg/kg
T1 construct: effects of acute oral treatment of anaesthetized SHR with lysozym/alcalase on blood pressure and plasma ACE activity; from tissue; host or cells: blood plasma of SHR rats
T1 sequence (P47820 36-1313): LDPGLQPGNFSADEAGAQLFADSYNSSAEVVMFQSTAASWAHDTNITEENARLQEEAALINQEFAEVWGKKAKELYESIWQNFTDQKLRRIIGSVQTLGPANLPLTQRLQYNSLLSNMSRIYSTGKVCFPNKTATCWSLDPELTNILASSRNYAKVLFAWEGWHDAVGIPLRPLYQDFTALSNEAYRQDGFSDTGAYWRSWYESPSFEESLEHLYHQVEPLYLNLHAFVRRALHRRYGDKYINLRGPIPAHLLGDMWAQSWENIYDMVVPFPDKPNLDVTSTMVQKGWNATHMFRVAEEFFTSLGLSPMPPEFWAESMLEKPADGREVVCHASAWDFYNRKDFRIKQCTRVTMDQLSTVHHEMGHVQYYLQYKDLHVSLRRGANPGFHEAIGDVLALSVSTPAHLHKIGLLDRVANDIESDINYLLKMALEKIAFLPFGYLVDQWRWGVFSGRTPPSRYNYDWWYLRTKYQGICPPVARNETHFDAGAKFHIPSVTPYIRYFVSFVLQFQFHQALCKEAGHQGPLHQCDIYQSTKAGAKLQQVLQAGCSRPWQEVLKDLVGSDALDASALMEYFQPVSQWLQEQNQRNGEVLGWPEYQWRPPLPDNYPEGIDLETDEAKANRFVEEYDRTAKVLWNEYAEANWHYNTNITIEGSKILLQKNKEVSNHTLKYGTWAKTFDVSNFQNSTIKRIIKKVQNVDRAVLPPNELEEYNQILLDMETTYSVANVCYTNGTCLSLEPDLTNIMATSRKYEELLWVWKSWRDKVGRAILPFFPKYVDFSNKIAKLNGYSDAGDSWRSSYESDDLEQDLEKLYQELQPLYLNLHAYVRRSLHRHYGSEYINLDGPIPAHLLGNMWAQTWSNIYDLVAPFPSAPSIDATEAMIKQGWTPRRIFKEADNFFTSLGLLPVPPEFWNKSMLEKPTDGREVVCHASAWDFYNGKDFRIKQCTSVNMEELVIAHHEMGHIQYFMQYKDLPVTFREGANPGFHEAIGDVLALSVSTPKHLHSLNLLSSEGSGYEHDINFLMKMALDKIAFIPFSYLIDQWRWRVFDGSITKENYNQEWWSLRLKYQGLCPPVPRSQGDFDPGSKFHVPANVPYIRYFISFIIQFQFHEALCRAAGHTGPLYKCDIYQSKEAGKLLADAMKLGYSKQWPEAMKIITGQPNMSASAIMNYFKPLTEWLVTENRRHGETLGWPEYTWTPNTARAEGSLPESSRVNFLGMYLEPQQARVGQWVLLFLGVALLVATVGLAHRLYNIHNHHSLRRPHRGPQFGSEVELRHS
Method: as §1, §2, §3, §4

| ACE inhibition ([2]; conc. 0.019 mg/ml) | ACE inhibition ([2]; conc. 0.056 mg/ml) | ACE inhibition ([2]; conc. 0.167 mg/ml) | ACE inhibition ([2]; conc. 0.500 mg/ml) | maximal decrease (inhibition) of plasma ACE activity from baseline [3] | Substance | maximal reduction in SBP [1] |
| --- | --- | --- | --- | --- | --- | --- |
| 0.1 | 1.3 | −4.7 | 2.6 | approx. 10% | Lys UM: lysozyme, not pre-hydrolysed, nor in vitro digested; control in SHR studies | approx. 15% |
| −0.4 | 5.2 | 2.2 | 2.1 |  | OM-UM: ovomucin, not pre-hydrolysed, nor in vitro digested |  |
